The results in this text go back to IntAct's records for PubMed 12852788.

The labels stand for the following.
B1: Lymphocyte antigen 6 complex locus protein G6f (Homo sapiens), Q5SQ64 (parent)
chain: MAVLFLLLFLCGTPQAADNMQAIYVALGEAVELPCPSPPTLHGDEHLSWFCSPAAGSFTTLVAQVQVGRPAPDPGKPGRESRLRLLGNYSLWLEGSKEEDAGRYWCAVLGQHHNYQNWRVYDVLVLKGSQLSARAADGSPCNVLLCSVVPSRRMDSVTWQEGKGPVRGRVQSFWGSEAALLLVCPGEGLSEPRSRRPRIIRCLMTHNKGVSFSLAASIDASPALCAPSTGWDMPWILMLLLTMGQGVVILALSIVLWRQRVRGAPGRDASIPQFKPEIQVYENIHLARLGPPAHKPR

One assay covers variants of B1. The settings on record: with grb7_human GRB7, Q14451.
Chain of grb7_human GRB7, Q14451 (Q14451 whole entry): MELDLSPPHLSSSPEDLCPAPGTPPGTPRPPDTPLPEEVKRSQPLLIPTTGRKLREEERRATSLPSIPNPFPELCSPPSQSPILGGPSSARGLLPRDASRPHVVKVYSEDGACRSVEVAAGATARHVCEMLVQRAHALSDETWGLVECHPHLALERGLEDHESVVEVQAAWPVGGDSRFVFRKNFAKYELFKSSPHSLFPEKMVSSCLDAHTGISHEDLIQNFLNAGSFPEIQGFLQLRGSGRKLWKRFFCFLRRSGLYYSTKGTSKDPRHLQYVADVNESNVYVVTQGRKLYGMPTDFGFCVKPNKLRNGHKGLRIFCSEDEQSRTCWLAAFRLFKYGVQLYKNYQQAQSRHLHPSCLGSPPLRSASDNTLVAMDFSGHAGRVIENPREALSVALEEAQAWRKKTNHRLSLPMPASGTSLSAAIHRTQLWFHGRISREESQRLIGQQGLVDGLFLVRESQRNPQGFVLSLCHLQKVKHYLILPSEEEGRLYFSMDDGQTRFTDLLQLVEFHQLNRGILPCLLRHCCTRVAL
Consider Y281F, for which the “effect of a mutation on the interaction” value is on record as “disrupting interaction strength”.

A further assay covers variants of B1. The conditions noted are these: with grb2_human GRB2, P62993.
Chain of grb2_human GRB2, P62993 (P62993 whole entry, looked up): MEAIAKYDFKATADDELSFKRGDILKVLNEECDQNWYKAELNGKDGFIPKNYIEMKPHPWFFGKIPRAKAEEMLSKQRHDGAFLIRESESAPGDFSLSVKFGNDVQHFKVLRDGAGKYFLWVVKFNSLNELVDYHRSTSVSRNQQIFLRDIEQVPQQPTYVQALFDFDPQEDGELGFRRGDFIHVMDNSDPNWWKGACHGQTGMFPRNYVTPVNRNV
As for Y281F, the “effect of a mutation on the interaction” value is listed as “disrupting interaction strength”.
